Read-outs that look alike come from different tables or passages of the source. Values belong to the molecule of their own block, whether it stands above or below them.
How the values were obtained:
PKR (Homo sapiens) [1] = molecular target: PKR (Homo sapiens) (UniProt P19525); conditions: cited from earlier work
PKR (Homo sapiens) [2] = molecular target: PKR (Homo sapiens) (UniProt P19525); experiment: sedimentation equilibrium; conditions: cited from earlier work
[3] = molecular target: PKR kinase kinase domain (Homo sapiens) (UniProt P19525); conditions: cited from earlier work
PKR = molecular target: T1, PKR (Homo sapiens, UniProt P19525); experiment: sedimentation equilibrium
T1 chain: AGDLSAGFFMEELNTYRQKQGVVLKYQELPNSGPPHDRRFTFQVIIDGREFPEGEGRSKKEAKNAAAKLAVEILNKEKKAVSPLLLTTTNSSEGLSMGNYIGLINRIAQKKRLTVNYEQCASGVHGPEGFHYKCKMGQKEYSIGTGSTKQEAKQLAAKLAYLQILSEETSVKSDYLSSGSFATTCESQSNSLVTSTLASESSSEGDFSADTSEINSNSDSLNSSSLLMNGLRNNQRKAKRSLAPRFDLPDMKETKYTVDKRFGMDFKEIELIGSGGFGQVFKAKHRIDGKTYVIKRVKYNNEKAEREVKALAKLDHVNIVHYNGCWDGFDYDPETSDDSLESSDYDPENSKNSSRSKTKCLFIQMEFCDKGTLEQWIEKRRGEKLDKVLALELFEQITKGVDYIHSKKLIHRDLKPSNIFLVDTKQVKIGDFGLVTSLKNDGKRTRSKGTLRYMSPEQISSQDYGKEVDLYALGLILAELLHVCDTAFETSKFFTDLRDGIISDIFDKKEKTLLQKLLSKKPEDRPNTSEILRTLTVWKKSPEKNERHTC

Molecule: PKR (from UniProt P19525)
Kd (PKR (Homo sapiens) [1]): 500 µM
Kd (PKR (Homo sapiens) [2]): 450 µM

Molecule: PKR second dsRBD dsRBD2 (from UniProt P19525)
Kd [3]: 250 µM

Kd (PKR): 1260 µM
B1: PKR (protein)
chain: AGDLSAGFFMEELNTYRQKQGVVLKYQELPNSGPPHDRRFTFQVIIDGREFPEGEGRSKKEAKNAAAKLAVEILNKEKKAVSPLLLTTTNSSEGLSMGNYIGLINRIAQKKRLTVNYEQCASGVHGPEGFHYKCKMGQKEYSIGTGSTKQEAKQLAAKLAYLQILSEETSVKSDYLSSGSFATTCESQSNSLVTSTLASESSSEGDFSADTSEINSNSDSLNSSSLLMNGLRNNQRKAKRSLAPRFDLPDMKETKYTVDKRFGMDFKEIELIGSGGFGQVFKAKHRIDGKTYVIKRVKYNNEKAEREVKALAKLDHVNIVHYNGCWDGFDYDPETSDDSLESSDYDPENSKNSSRSKTKCLFIQMEFCDKGTLEQWIEKRRGEKLDKVLALELFEQITKGVDYIHSKKLIHRDLKPSNIFLVDTKQVKIGDFGLVTSLKNDGKRTRSKGTLRYMSPEQISSQDYGKEVDLYALGLILAELLHVCDTAFETSKFFTDLRDGIISDIFDKKEKTLLQKLLSKKPEDRPNTSEILRTLTVWKKSPEKNERHTC
modifications: K371pAzF labeled with Alexa Fluor 488-DIBO

Kd (PKR): 94 µM
B2: PKR (protein)
chain: AGDLSAGFFMEELNTYRQKQGVVLKYQELPNSGPPHDRRFTFQVIIDGREFPEGEGRSKKEAKNAAAKLAVEILNKEKKAVSPLLLTTTNSSEGLSMGNYIGLINRIAQKKRLTVNYEQCASGVHGPEGFHYKCKMGQKEYSIGTGSTKQEAKQLAAKLAYLQILSEETSVKSDYLSSGSFATTCESQSNSLVTSTLASESSSEGDFSADTSEINSNSDSLNSSSLLMNGLRNNQRKAKRSLAPRFDLPDMKETKYTVDKRFGMDFKEIELIGSGGFGQVFKAKHRIDGKTYVIKRVKYNNEKAEREVKALAKLDHVNIVHYNGCWDGFDYDPETSDDSLESSDYDPENSKNSSRSKTKCLFIQMEFCDKGTLEQWIEKRRGEKLDKVLALELFEQITKGVDYIHSKKLIHRDLKPSNIFLVDTKQVKIGDFGLVTSLKNDGKRTRSKGTLRYMSPEQISSQDYGKEVDLYALGLILAELLHVCDTAFETSKFFTDLRDGIISDIFDKKEKTLLQKLLSKKPEDRPNTSEILRTLTVWKKSPEKNERHTC
modifications: K261pAzF labeled with Alexa Fluor 488-DIBO

— paper PMC4641775 (2016)
